Data: paper PMC9425028, “The complex formation of MASP-3 with pattern recognition molecules of the lectin complement pathway retains MASP-3 in the circulation” (Frontiers in Immunology, 2022)

Tests used:
Assay in all cases: ELISA; sandwich ELISA: 10 ug each of rmMASP-3-PA and rmMASP-3-ALFA mixed, dialysed against TBS/10 mM EDTA 24 h at 4°C, then against TBS/5 mM CaCl2 24 h at 4°C; 0.14 uM of each, serially diluted in 20% Blocking One in TBS/Ca; captured on anti-PA tag antibody, 30 min room temperature; detected with HRP-conjugated anti-ALFA nanobody
Conditions in all cases: both partners purified
[1] = target: T1, Y225A mutant recombinant mouse MASP-3 fused with PA-tag (mouse, UniProt P98064-2 25-733, Y225A)
T1 construct: Made from the pCAG-Bsd PA tag-C/WT rmMASP-3 plasmid by site-directed mutagenesis; also called Y225A rmMASP-3-PA; mutant rmMASP-3-PA; source: CHO cells, transfected, culture supernatant, purified (anti-PA tag antibody beads); not shown: PA tag (human podoplanin dodecapeptide), C-terminal, kept
T1 sequence (looked up): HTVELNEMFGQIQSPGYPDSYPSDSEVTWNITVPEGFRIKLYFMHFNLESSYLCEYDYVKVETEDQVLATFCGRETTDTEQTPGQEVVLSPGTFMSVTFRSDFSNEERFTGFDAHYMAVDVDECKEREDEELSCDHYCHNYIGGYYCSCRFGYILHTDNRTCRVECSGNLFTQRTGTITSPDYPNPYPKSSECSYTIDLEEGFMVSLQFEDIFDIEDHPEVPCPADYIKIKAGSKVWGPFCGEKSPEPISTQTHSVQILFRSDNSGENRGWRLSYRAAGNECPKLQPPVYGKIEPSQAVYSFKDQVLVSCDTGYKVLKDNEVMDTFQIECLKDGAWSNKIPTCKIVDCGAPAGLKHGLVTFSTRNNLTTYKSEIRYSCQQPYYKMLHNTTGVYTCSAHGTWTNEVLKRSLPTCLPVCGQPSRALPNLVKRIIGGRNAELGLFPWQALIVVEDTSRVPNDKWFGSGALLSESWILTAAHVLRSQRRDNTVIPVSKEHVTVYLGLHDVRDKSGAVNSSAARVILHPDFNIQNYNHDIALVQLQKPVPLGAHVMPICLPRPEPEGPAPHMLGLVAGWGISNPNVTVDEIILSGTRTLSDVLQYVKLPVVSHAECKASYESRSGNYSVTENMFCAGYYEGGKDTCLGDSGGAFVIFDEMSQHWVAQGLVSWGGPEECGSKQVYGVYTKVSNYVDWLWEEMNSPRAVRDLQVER

[2] = target: T2, E49A mutant recombinant mouse MASP-3 fused with PA-tag (mouse, UniProt P98064-2 25-733, E49A)
T2 construct: Made from the pCAG-Bsd PA tag-C/WT rmMASP-3 plasmid by site-directed mutagenesis; also called E49A rmMASP-3-PA; mutant rmMASP-3-PA; source: CHO cells, transfected, culture supernatant, purified (anti-PA tag antibody beads); not shown: PA tag (human podoplanin dodecapeptide), C-terminal, kept
T2 sequence (looked up): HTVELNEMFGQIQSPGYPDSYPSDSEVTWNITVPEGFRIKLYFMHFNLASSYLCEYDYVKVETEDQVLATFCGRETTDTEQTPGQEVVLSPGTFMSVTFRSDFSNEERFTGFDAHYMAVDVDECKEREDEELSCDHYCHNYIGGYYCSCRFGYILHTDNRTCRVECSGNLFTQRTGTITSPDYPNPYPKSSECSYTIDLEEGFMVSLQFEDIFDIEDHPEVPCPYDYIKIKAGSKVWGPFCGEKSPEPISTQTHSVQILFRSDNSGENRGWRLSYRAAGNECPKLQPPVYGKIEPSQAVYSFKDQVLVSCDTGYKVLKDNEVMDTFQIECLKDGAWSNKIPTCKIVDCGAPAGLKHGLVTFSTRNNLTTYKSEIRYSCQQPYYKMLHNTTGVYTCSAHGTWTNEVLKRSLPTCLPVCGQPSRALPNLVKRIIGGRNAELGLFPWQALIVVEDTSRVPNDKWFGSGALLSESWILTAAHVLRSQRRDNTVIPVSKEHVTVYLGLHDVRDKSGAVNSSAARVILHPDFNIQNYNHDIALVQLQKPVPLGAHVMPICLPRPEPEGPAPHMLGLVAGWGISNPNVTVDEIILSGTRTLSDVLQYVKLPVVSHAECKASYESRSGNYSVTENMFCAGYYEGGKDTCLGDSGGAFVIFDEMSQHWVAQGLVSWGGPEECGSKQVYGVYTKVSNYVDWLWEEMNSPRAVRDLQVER

[3] = target: T3, H218A mutant recombinant mouse MASP-3 fused with PA-tag (mouse, UniProt P98064-2 25-733, H218A)
T3 construct: Made from the pCAG-Bsd PA tag-C/WT rmMASP-3 plasmid by site-directed mutagenesis; also called H218A rmMASP-3-PA; mutant rmMASP-3-PA; source: CHO cells, transfected, culture supernatant, purified (anti-PA tag antibody beads); not shown: PA tag (human podoplanin dodecapeptide), C-terminal, kept
T3 sequence (looked up): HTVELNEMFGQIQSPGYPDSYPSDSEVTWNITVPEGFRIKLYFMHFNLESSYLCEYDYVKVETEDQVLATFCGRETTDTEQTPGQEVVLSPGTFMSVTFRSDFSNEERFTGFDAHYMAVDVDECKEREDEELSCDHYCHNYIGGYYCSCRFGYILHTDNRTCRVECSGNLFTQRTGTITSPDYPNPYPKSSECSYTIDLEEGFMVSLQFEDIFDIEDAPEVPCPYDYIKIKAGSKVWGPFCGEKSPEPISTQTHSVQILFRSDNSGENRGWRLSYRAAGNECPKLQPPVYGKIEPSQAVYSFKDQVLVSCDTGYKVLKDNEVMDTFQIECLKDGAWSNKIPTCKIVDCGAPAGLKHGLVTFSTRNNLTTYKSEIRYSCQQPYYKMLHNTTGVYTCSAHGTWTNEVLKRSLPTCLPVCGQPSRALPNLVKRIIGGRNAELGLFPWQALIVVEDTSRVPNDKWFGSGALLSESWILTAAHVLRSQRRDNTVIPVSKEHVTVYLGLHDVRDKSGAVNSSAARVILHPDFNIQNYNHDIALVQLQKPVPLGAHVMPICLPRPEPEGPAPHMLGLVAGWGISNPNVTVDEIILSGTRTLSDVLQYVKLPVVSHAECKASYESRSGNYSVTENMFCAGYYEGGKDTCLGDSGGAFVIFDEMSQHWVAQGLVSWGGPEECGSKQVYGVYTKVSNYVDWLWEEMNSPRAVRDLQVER

[4] = target: T4, wild-type recombinant mouse MASP-3 fused with PA-tag (WT rmMASP-3-PA) (mouse, UniProt P98064-2 25-733)
T4 construct: Secreted from CHO cells, purified as a proenzyme of about 110 kDa; in the circulation partly cleaved into H-chain and L-chain (active form); also called WT-PA; source: CHO cells, transfected, culture supernatant, purified (anti-PA tag antibody beads); not shown: PA tag (human podoplanin dodecapeptide), C-terminal, kept
T4 sequence (looked up): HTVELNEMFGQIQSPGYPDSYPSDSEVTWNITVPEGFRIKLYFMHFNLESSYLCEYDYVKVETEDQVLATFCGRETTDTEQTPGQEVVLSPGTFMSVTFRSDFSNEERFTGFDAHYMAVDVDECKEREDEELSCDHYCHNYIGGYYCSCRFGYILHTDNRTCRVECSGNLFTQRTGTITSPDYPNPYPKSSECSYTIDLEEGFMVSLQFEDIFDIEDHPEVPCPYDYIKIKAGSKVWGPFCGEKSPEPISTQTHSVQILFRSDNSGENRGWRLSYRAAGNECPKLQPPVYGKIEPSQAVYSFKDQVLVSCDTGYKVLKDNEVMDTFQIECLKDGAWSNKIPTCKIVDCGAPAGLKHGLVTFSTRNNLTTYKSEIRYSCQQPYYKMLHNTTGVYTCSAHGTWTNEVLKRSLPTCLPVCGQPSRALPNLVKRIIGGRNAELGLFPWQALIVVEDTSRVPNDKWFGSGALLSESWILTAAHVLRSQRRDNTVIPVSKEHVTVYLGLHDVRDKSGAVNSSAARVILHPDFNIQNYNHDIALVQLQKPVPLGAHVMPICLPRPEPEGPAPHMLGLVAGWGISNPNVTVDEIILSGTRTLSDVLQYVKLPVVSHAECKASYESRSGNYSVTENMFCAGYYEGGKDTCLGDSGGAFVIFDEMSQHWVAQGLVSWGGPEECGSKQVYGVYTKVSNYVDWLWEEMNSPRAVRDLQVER

Measured: binding result

B1: wild-type recombinant mouse MASP-3 with ALFA tag (WT rmMASP-3-ALFA) (enzyme, UniProt P98064-2 25-733, looked up)
chain: HTVELNEMFGQIQSPGYPDSYPSDSEVTWNITVPEGFRIKLYFMHFNLESSYLCEYDYVKVETEDQVLATFCGRETTDTEQTPGQEVVLSPGTFMSVTFRSDFSNEERFTGFDAHYMAVDVDECKEREDEELSCDHYCHNYIGGYYCSCRFGYILHTDNRTCRVECSGNLFTQRTGTITSPDYPNPYPKSSECSYTIDLEEGFMVSLQFEDIFDIEDHPEVPCPYDYIKIKAGSKVWGPFCGEKSPEPISTQTHSVQILFRSDNSGENRGWRLSYRAAGNECPKLQPPVYGKIEPSQAVYSFKDQVLVSCDTGYKVLKDNEVMDTFQIECLKDGAWSNKIPTCKIVDCGAPAGLKHGLVTFSTRNNLTTYKSEIRYSCQQPYYKMLHNTTGVYTCSAHGTWTNEVLKRSLPTCLPVCGQPSRALPNLVKRIIGGRNAELGLFPWQALIVVEDTSRVPNDKWFGSGALLSESWILTAAHVLRSQRRDNTVIPVSKEHVTVYLGLHDVRDKSGAVNSSAARVILHPDFNIQNYNHDIALVQLQKPVPLGAHVMPICLPRPEPEGPAPHMLGLVAGWGISNPNVTVDEIILSGTRTLSDVLQYVKLPVVSHAECKASYESRSGNYSVTENMFCAGYYEGGKDTCLGDSGGAFVIFDEMSQHWVAQGLVSWGGPEECGSKQVYGVYTKVSNYVDWLWEEMNSPRAVRDLQVER
notes: The fragment was put into the pCAG-Bsd PA tag-C vector; also called WT-ALFA; source: CHO cells, transfected, culture supernatant, purified (ALFA Selector ST); not shown: ALFA tag, C-terminal, kept
binds: all assays above
